Source: patent US20120095193A1 (published 2012)

T1: human ADAMTS5 (human, UniProt Q9UNA0 262-622, limits assumed)
T1 construct: Octet and ELISA used 'recombinant human ADAMTS5'; also called recombinant human ADAMTS5; ADAMTS5 (R&D Systems 2198-AD)
T1 sequence: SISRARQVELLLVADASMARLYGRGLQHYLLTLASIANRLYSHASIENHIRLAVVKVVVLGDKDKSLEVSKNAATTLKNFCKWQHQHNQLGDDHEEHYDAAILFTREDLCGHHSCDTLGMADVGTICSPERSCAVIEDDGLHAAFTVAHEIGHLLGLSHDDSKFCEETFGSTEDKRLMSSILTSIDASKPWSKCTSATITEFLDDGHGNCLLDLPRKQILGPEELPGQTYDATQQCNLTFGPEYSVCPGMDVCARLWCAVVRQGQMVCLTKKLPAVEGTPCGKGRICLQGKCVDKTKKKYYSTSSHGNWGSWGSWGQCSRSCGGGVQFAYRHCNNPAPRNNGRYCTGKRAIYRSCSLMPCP

T2: Human ADAMTS1 (human, UniProt Q9UHI8 253-967, limits assumed)
T2 sequence (looked up): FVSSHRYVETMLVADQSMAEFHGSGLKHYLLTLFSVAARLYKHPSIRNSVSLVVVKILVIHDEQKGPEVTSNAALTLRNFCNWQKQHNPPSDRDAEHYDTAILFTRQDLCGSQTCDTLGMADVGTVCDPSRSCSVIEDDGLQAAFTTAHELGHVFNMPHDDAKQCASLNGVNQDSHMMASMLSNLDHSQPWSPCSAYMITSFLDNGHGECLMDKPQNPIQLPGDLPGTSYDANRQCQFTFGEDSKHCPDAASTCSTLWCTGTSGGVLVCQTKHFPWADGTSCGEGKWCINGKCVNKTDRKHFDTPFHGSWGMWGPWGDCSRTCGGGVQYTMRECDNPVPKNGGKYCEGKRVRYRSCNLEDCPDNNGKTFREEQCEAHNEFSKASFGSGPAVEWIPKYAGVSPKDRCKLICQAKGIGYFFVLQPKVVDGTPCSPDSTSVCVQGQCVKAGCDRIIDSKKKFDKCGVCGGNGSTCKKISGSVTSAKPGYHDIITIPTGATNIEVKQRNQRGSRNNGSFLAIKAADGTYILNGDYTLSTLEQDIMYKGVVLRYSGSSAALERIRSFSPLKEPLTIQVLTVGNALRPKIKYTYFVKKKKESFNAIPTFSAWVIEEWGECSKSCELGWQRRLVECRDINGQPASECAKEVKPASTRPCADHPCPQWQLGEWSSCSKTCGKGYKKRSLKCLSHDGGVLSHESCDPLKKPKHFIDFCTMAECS

T3: Human ADAMTS13 (human, UniProt Q76LX8 75-685, limits assumed)
T3 sequence (looked up): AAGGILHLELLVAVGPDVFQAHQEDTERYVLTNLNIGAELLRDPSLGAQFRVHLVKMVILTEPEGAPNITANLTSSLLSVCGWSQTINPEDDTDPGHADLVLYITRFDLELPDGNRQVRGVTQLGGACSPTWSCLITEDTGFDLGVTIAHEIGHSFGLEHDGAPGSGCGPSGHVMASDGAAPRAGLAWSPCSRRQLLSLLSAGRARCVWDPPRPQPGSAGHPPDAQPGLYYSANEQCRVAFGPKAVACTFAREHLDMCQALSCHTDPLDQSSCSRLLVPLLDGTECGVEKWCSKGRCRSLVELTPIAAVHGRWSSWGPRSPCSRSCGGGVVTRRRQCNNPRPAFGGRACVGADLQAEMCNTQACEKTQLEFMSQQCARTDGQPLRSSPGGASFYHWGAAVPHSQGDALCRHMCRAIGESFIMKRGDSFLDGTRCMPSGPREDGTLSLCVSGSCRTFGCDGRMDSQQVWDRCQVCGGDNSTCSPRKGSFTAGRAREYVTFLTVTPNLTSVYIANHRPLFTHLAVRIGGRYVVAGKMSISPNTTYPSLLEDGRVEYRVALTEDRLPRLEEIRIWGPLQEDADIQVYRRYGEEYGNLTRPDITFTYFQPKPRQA

T4: Human MMP1 (human, UniProt P03956 20-469, limits assumed)
T4 sequence (looked up): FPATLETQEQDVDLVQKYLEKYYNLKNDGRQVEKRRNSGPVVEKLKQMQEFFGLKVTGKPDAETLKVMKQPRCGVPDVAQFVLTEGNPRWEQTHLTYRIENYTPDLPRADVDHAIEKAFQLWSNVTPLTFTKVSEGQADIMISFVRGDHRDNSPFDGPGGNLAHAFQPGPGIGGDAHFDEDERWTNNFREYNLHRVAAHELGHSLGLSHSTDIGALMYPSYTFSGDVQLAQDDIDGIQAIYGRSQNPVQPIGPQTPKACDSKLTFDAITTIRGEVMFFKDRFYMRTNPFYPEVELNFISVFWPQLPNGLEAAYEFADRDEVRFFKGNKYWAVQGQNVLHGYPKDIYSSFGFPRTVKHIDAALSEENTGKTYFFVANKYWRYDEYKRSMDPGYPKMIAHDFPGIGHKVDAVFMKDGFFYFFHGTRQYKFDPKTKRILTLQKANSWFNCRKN

T5: Human ADAMTS4 (human, UniProt O75173 213-685, limits assumed)
T5 construct: also called aggrecanase-1
T5 sequence: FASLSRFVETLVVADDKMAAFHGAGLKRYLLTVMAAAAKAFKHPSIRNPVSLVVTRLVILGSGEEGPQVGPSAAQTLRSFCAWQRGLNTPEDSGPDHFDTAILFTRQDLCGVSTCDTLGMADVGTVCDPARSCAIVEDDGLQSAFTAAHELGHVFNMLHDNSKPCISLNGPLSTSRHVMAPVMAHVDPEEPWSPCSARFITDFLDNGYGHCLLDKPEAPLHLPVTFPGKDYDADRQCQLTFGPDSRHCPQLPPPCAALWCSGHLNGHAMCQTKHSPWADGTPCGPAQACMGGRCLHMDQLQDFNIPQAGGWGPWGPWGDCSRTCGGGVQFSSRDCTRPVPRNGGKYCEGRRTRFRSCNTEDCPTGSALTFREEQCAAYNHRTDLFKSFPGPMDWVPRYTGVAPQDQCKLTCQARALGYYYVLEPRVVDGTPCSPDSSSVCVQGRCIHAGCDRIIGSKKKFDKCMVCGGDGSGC


Columns and labels:
human ADAMTS5 [1] = biological target: T1, human ADAMTS5; assay: Octet QK, purified mAb
human ADAMTS5 [2] = biological target: T1, human ADAMTS5; assay: Biacore, mAb down, no avidity
human ADAMTS5 [3] = biological target: T1, human ADAMTS5; assay: Biacore, purified mAb captured on anti-human IgG, ADAMTS5 (R&D 2198-AD) at 64 nM, 1:1 fit
Protocol: (§1) Anti-human IgG (Biacore™, BR-1008-39) was immobilized on a CM5 chip by primary amine coupling. This surface was then used to capture the humanized antibodies, ADAMTS5 (R&D Systems 2198-AD) was then passed over the captured antibody at a single concentration of 64 nM, regeneration was carried out using 100 mM phosphoric acid followed by 3M MgCl₂. The binding curves were double referenced with buffer injection (i.e. 0 nM) and the data was fitted to the T100 analysis software using the 1:1 model. The run was carried out at 25° C., using HBS-EP as the running buffer. All antibodies were captured from tissue culture supernatants unless specified.

human ADAMTS5 [4] = biological target: T1, human ADAMTS5; assay: Biacore, mAb from culture supernatant captured on anti-human IgG, ADAMTS5 (R&D 2198-AD) at 64 nM, 1:1 fit
Protocol: as §1

human ADAMTS5 [5] = biological target: T1, human ADAMTS5; assay: Octet QK, antigen down, incl avidity
human ADAMTS5 [6] = biological target: T1, human ADAMTS5; assay: Octet QK, purified murine mAb
human ADAMTS5 [7] = biological target: T1, human ADAMTS5; assay: cell-based or functional assay
Human ADAMTS1 = biological target: T2, Human ADAMTS1; assay: celTRF and Octet QK cross-reactivity
Human MMP13 = Human MMP13 (human, UniProt P45452 20-471, limits assumed); assay: celTRF and Octet QK cross-reactivity
Human ADAMTS13 = biological target: T3, Human ADAMTS13; assay: celTRF and Octet QK cross-reactivity
Human MMP9 = Human MMP9 (human, UniProt P14780 20-707, limits assumed); assay: celTRF and Octet QK cross-reactivity
Human MMP1 = biological target: T4, Human MMP1; assay: celTRF and Octet QK cross-reactivity
Human MMP3 = Human MMP3 (human, UniProt P08254 18-477, limits assumed); assay: celTRF and Octet QK cross-reactivity
Human ADAMTS4 = biological target: T5, Human ADAMTS4; assay: celTRF and Octet QK cross-reactivity

Chain of Human MMP3 (P08254 18-477 limits assumed): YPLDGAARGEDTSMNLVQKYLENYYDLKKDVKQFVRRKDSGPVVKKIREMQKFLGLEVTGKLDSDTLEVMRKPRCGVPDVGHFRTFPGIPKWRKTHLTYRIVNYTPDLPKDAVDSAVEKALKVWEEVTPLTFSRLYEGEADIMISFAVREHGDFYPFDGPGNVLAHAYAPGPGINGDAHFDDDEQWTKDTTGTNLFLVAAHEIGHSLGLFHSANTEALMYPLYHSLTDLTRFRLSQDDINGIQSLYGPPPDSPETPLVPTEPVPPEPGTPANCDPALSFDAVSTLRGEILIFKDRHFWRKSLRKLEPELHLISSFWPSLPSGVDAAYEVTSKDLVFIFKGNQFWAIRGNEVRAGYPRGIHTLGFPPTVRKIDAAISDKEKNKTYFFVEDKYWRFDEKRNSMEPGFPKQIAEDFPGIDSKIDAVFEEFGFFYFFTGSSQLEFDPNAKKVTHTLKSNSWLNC
Chain of Human MMP9 (P14780 20-707 limits assumed): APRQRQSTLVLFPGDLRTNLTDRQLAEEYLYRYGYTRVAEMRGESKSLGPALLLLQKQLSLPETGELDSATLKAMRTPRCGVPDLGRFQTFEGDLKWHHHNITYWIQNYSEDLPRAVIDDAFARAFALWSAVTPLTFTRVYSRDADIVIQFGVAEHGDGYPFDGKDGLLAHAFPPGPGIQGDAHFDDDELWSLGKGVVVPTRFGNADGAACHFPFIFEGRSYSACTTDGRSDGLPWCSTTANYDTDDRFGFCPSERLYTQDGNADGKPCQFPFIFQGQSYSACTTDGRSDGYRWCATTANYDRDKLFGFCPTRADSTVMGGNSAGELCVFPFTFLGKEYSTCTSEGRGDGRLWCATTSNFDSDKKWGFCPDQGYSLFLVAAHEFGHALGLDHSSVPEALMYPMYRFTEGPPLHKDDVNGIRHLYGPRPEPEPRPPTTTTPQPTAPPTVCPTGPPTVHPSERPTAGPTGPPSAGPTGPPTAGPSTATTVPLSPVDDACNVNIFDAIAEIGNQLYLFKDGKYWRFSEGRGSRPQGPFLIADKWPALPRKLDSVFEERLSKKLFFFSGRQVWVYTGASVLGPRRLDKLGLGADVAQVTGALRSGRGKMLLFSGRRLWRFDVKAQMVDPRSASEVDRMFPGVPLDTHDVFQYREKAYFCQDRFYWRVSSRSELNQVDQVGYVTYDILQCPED

Kd (human ADAMTS5 [1]) [nM]	Kd (human ADAMTS5 [2]) [nM]	Kd (human ADAMTS5 [3]) [nM]	koff (human ADAMTS5 [3]) [s⁻¹]	kon (human ADAMTS5 [3]) [M⁻¹ s⁻¹]	Kd (human ADAMTS5 [4]) [nM]	koff (human ADAMTS5 [4]) [s⁻¹]	kon (human ADAMTS5 [4]) [M⁻¹ s⁻¹]	Kd (human ADAMTS5 [5]) [nM]	Kd (human ADAMTS5 [6]) [nM]	Aggrecan Substrate Cleavage Neutralization IC50 (human ADAMTS5 [7]) [nM]	binding result (Human ADAMTS1)	binding result (Human MMP13)	binding result (Human ADAMTS13)	binding result (Human MMP9)	binding result (Human MMP1)	binding result (Human MMP3)	binding result (Human ADAMTS4)	Binder
0.0799	0.051	0.0727	4.7e-05	646000	0.0774	4.82e-05	623000	0.0431										BPC1623 (antibody, human IgG1, kappa, V domains shown, Chimeric: murine variable domains on human gamma 1 and kappa constant regions; also called 12F4 Chimera; Chimeric 12F4.1H7) VH: EVKLEESGGGLVQPGGSMKLSCTASGFTFSDAWMDWVRQSPEKGLEWVAEIRHKANDHAIFYDESVKGRFTISRDDSKNIVYLQMNSLRPEDTGIYYCTSPFAYWGQGTLVTVSS VL: DIVMTQSQKFMSVTVGDRVSITCKASQSVGTTIVWYQQKPGQSPKLLIYSASNRHTGVPDRFTGSGSGTDFILTINNVQSEDLADYFCQQYTSYPFTFGSGTKLEIKR
									0.0862	0.031	no binding	no binding	no binding	no binding	no binding	no binding	no binding	2D3.1D4 (antibody, V domains shown, Murine monoclonal antibody from a hybridoma) VH: EVKLEESGGGLVQPGGSMKLSCAASGITFSDAWMDWVRQSPEKGLEWVADIRNTANNHATFYAESVKGRFTISRDDSKSTVYLQMNTLRPEDTGIYYCTSPFAYWGQGTLVTVSA VL: DIVMTQSQKFMSTTVGDRVSITCKASQNVGTAVVWFQQKPGQSPKLLIYSASNRYTRVPDRFTGSGSGTDFTLTISNVQSEDLADYFCQQYVNYPFTFGSGTKLEIKR
									0.126	0.05	no binding	no binding	no binding	no binding	no binding	no binding	no binding	5F10.1H6 (antibody, V domains shown, Murine monoclonal antibody from a hybridoma) VH: EVKLEESGGGLVQPGGSMKLSCAASGFTFSDAWMDWVRQSPEKGLEWVAEIRHKANDHAIFYDESVKGRFTISRDDSKSIVYLQMNSLRPEDTGIYYCTSPFAYWGQGTLVTVSA VL: DIVMTQSQRFMSVTVGDRVSITCKASQSVGTTIVWYQQKPGQSPKLLIYSASTRYTGVPDRFTGGGSGTDFILTINNVQSEDLADYFCQQYSSYPFTFGSGTKLEIKR
									0.0824	0.769	no binding	no binding	no binding	no binding	no binding	no binding	no binding	3A12.1D7 (antibody, V domains shown, Murine monoclonal antibody from a hybridoma) VH: EVKFEESGGGLVQPGGSMKLSCAASGFIFSDAWMDWVRQSPEKGLEWVAEIRHKANDYAIFYDESVKGRFTISRDDSKSIVYLQMNNLRPEDTGIYYCTSPFAYWGQGTLVTVSA VL: DIVMTQSQKFMSVTVGDRVSITCKASQSVGTTIVWYQQKPGQSPKLLIYSASNRHTGVPDRFTGSGSGTDFILTISNVQSEDLADYFCQQYSSYPFTFGSGTKLEIKR
0.345	0.473	1.21	0.00106	872000	1.12	0.0013	1.16e+06	0.26										BPC1622 (antibody, human IgG1, kappa, V domains shown, Chimeric: murine variable domains on human gamma 1 and kappa constant regions; also called 7B4 Chimera; Chimeric 7B4.1E11) VH: EVKLEESGGGLVQPGGSMKLSCAASGFTSSDAWMDWVRQSPEKGLEWVAEIRNKANNHARHYAESVKGRFTISRDDSKSSVYLQMNSLRAEDSGIYYCTRTYYYGSSYGYCDVWGTGTLVTVSS VL: DIQMTQSPASLSASVGETVTITCRTSENIYSYLAWYQQKQGKSPQLLVYNAKTLAEGVPSRFSGSGSGTQFSLKINSLQPEDFGSYSCQHHYGTPWTFGGGTKLEIKR
